Values quoted from earlier work in paper PMC2517140.

Target: gp41 trimeric inner core (Human immunodeficiency virus 1) (UniProt O70902)

Substance: gp41 outer-layer peptide (from UniProt O70902)
- Kd: 1 nM
